Data: PMC10533412, “Phosphoantigens glue butyrophilin 3A1 and 2A1 to activate Vγ9Vδ2 T cells” (Nature, 2023)

How the values were obtained:
BTN2A1 B30.2 domain = BTN2A1 B30.2 domain (UniProt Q7KYR7); assay: ITC; conditions: with HMBPP
HMBPP = assay: ITC
[1] = target: VpBTN3 butyrophilin full intracellular domain (BFI) (alpaca (Vicugna pacos)); assay: ITC; with IPP; conditions: domain or fragment
[2] = target: VpBTN3 butyrophilin full intracellular domain (BFI) (alpaca (Vicugna pacos)); assay: ITC; with DMAPP; conditions: domain or fragment
[3] = target: VpBTN3 butyrophilin full intracellular domain (BFI) (alpaca (Vicugna pacos)); assay: ITC; with HMBPP; conditions: domain or fragment

BTN2A1 B30.2 domain, sequence (Q7KYR7 whole entry, looked up, tested part not stated): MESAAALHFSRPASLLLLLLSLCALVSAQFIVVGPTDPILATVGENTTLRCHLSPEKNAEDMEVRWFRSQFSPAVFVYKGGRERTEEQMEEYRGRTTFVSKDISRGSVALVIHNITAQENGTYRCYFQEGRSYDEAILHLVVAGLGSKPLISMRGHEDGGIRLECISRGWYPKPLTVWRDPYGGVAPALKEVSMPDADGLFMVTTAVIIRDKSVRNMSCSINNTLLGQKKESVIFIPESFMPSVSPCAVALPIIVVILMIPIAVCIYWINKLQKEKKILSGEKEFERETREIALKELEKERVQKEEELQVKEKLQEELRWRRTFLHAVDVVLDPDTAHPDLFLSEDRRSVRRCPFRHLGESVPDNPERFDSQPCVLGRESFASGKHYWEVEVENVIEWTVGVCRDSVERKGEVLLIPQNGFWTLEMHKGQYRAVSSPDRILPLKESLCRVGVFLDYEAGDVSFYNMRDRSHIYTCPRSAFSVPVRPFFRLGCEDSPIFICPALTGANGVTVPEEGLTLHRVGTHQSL

Substance	Kd (BTN2A1 B30.2 domain)	Kd (HMBPP)	Kd [1]	Kd [2]	Kd [3]
BTN3A3 B30.2 R351H	0.46 µM	10.9 µM	–	–	–
VpBTN2 butyrophilin full intracellular domain (BFI)	–	–	191 µM	46.5 µM	0.658 µM
